The results in this text go back to PMC9758440.

This experiment deals with N-terminal SNAP-tagged FGFR1c on the surface of stable COS7 cells (human) (UniProt P11362). Nature of the experiment: FRET or BRET. In general terms: BRET reads energy transfer from a luciferase to a nearby fluorophore.

“N-terminal SNAP-tagged FGFR1c on the surface of stable COS7 cells (from UniProt P11362 22-822) (receptor)”: the fold increase of the TR-FRET signal with FGF2 turned out to be 2.8 fold.
